From patent US20100285005A1 (Eli Lilly, published 2010)

Experiments:
[1] = target: human CXCR4 receptor with a C-terminal linear C9 peptide tag (human); test: SPR (Biacore 2000), C9-tagged CXCR4 captured by 1D4 antibody, antibody injected, 4 °C
[2] = target: T1, human CXCR4, endogenous on human cells (CCRF-CEM leukemia cells; U937 histiocytic lymphoma cells) (human, UniProt P61073 1-352); test: inhibition of 125I-SDF-1α binding to CCRF-CEM cells expressing endogenous CXCR4 (SPA); antibody III's own average value
T1 construct: whole, on cells
Experimental: SDF-1 binding to CXCR4 is the first step in activating the CXCR4 intracellular signaling pathway. To determine if an antibody can block the interaction of SDF-1 and CXCR4, human leukemia CCRF-CEM cells expressing endogenous CXCR4 are used in an ¹²⁵I-labeled SDF-1α binding assay. The assay is performed in a 96-well U-bottom, non-treated polystyrene plate. The binding assay buffer is prepared with RPMI 1640 medium containing 10 mM N-2-hydroxyethylpiperazine-N′-2-ethanesulfonic acid (HEPES), pH 7.5, and 0.2% bovine serum albumin (BSA). Briefly, 200 μL reaction mixtures containing 300 pM ligand (60 pM ¹²⁵I-SDF-1α and 240 pM cold SDF-1α), different concentrations of the test antibody in assay buffer, 100,000 human CCRF-CEM cells, and 0.5 mg scintillation proximity assay (SPA) beads are incubated at room temperature for 2 hours. Plates are then counted in a liquid scintillation and luminescence counter in SPA mode. CXCR4 antagonists decrease the bound radioactivity in this assay in a dose-dependent manner. The inhibitory potency (IC₅₀) of a test antibody is calculated using GraphPad Prism software, based on the dose-dependent decrease of bound radioactivity.

[3] = target: T1, human CXCR4, endogenous on human cells …; test: cell-based or functional assay

T1 sequence (P61073 whole entry): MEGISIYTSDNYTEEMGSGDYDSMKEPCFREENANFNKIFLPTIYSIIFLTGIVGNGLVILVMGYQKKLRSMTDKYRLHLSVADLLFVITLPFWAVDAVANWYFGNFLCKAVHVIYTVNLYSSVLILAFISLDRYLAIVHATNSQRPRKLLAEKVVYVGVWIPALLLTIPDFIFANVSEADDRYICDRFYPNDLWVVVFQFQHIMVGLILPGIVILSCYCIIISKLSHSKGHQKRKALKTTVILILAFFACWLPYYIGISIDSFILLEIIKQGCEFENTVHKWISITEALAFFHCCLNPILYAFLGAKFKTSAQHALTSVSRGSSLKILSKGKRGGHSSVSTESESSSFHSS

Row | Binder | Kd [1] | koff [1] | kon [1] | IC50 [2] | IC50, chemotaxis assay (SDF-1α-driven migration of U937 cells) [3]
1 | Antibody III (antibody, human IgG4 S228P, kappa, F234A L235A, V domains shown, Human engineered anti-CXCR4 antibody; also called the antibody III) VH: EVQLVESGGGLVQPGGSLRLSCAASGFTSTDYYFSWVRQAPGKGLEWVGFIRYKSKGYTTEYSGSVKGRFTISRDDSKNSLYLQMNSLKTEDTAVYYCAREPITTDPRDYWGQGTLVTVSS VL: DIVMTQSPDSLAVSLGERATINCKSSQSLFNSRTRKKYLAWYQQKPGQPPKLLIYWASKRKSGVPDRFSGSGSGTDFTLTISSLQAEDVAVYYCKQSRFLRAFGQGTKLEIKR | 1.54 nM | 0.00172 s⁻¹ | 1.12e+06 M⁻¹ s⁻¹ | 0.45 nM | 
2 | Antibody II (antibody, human IgG4 S228P, kappa, F234A L235A, V domains shown) VH: EVQLVESGGGLVQPGGSLRLSCAASGFTSTDYYFSWVRQAPGKGLEWVGFIRSKSKGYTTEYSGSVKGRFTISRDDSKNSLYLQMNSLKTEDTAVYYCAREPITTDPRDYWGQGTLVTVSS VL: DIVMTQSPDSLAVSLGERATINCKSSQSLFNSRTRKKYLAWYQQKPGQPPKLLIYWASKRKSGVPDRFSGSGSGTDFTLTISSLQAEDVAVYYCKQSRFLRAFGQGTKLEIKR | 0.72 nM | 0.00181 s⁻¹ | 2.5e+06 M⁻¹ s⁻¹ |  | ≤ 30 nM
3 | Antibody I (antibody, human IgG4 S228P, kappa, F234A L235A, V domains shown) VH: EVQLVESGGGLVQPGGSLRLSCAASGFTSTDYYFSWVRQAPGKGLEWVGFIRTKSKGYTTEYSGSVKGRFTISRDDSKNSLYLQMNSLKTEDTAVYYCAREPITTDPRDYWGQGTLVTVSS VL: DIVMTQSPDSLAVSLGERATINCKSSQSLFNSRTRKKYLAWYQQKPGQPPKLLIYWASKRKSGVPDRFSGSGSGTDFTLTISSLQAEDVAVYYCKQSRFLRAFGQGTKLEIKR | 0.68 nM | 0.00161 s⁻¹ | 2.36e+06 M⁻¹ s⁻¹ |  | ≤ 30 nM
4 | Antibody IV (antibody, human IgG4 S228P, kappa, F234A L235A, V domains shown) VH: EVQLVESGGGLVQPGGSLRLSCAASGFTSTDYYFSWVRQAPGKGLEWVGFIRNKRKGYTTEYSGSVKGRFTISRDDSKNSLYLQMNSLKTEDTAVYYCAREPITTDPRDYWGQGTLVTVSS VL: DIVMTQSPDSLAVSLGERATINCKSSQSLFNSRTRKKYLAWYQQKPGQPPKLLIYWASKRKSGVPDRFSGSGSGTDFTLTISSLQAEDVAVYYCKQSRFLRAFGQGTKLEIKR | 5.14 nM | 0.00398 s⁻¹ | 774000 M⁻¹ s⁻¹ |  | ≤ 30 nM
5 | Antibody V (antibody, human IgG4 S228P, kappa, F234A L235A, V domains shown) VH: EVQLVESGGGLVQPGGSLRLSCAASGFTSTDYYFSWVRQAPGKGLEWVGFIRHKSKGYTTEYSGSVKGRFTISRDDSKNSLYLQMNSLKTEDTAVYYCAREPITTDPRDYWGQGTLVTVSS VL: DIVMTQSPDSLAVSLGERATINCKSSQSLFNSRTRKKYLAWYQQKPGQPPKLLIYWASKRKSGVPDRFSGSGSGTDFTLTISSLQAEDVAVYYCKQSRFLRAFGQGTKLEIKR | 0.88 nM | 0.00168 s⁻¹ | 1.91e+06 M⁻¹ s⁻¹ |  | ≤ 30 nM
